In assay [1] the target is human Tissue Factor (hTF), endogenously expressed on human TF-positive cells (human, UniProt P13726 33-295). Put plainly: cell-based or functional assay.
Assay [2] addresses T1, pig TF ECD-His (pig TF-His) protein (pig (Sus scrofa)).
T1 construct: Extracellular domain with a C-terminal TG-His6 tag, used as analyte in Biacore; also called pTF
T1 chain: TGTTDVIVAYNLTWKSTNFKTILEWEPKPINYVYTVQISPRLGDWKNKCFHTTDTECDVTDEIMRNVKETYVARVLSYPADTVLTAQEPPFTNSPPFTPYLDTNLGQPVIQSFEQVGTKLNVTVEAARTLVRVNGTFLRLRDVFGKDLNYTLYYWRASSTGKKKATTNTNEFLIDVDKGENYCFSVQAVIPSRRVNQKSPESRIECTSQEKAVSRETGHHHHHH
Put plainly: Biacore, antibody captured by anti-human IgG on CM5 chip, pig TF-His as analyte, 1:1 model.

The target of assay [3] is T2, rTF (rat TF) (rat, UniProt P42533 29-252).
T2 construct: Expressed on the surface of transfected HEK293 cells
Put plainly: live cell staining, flow cytometry. A general note: A flow cytometer gives signals particle by particle.

The target of a further assay is T3, hTF (human, UniProt P13726 33-251).
T3 construct: also called human TF; human Tissue Factor
Put plainly: live cell staining, flow cytometry.

The target in assay [4] is T4, hTF_N171H_T197K (human, UniProt P13726 33-251).
T4 construct: on HEK293 cells
T4 chain: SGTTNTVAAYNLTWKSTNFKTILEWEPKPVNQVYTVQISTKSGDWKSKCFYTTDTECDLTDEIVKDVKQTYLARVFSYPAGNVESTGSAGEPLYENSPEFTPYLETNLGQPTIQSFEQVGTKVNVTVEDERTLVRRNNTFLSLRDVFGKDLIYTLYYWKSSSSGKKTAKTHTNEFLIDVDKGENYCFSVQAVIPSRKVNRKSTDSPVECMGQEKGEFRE
Put plainly: live cell staining, flow cytometry.

The target in another assay is T5, r141-194_h (rat/human chimera, UniProt P42533 29-252).
T5 construct: on HEK293 cells
The experiment in a line: live cell staining, flow cytometry.

The target of assay [5] is T2, rTF (rat TF). Put plainly: live cell staining, flow cytometry. This is another data set of the same source.
The target of the next assay is T6, h1-77_r (human/rat chimera).
T6 construct: Human TF with ECD residues 1-77 replaced by the rat segment; on HEK293 cells
Put plainly: live cell staining, flow cytometry.

For a further assay, the target named is T7, h78-107_r.v2 (human/rat chimera).
T7 construct: on HEK293 cells
The experiment in a line: live cell staining, flow cytometry.

The target of another assay is T8, h1-107_r (human/rat chimera).
T8 construct: on HEK293 cells
T8 chain: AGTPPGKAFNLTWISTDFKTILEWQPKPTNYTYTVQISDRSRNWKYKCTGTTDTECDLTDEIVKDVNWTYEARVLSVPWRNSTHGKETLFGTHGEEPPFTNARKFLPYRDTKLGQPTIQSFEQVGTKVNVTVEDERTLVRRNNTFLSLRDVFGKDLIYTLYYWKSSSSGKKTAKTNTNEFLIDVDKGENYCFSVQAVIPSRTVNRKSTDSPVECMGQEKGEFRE
The experiment in a line: live cell staining, flow cytometry.

Assay [6] addresses T9, cynomolgus TF ECD-His6 (cynomolgus monkey (Macaca fascicularis)).
T9 construct: made in Expi293 cells; also called TF-His; cTF
T9 chain: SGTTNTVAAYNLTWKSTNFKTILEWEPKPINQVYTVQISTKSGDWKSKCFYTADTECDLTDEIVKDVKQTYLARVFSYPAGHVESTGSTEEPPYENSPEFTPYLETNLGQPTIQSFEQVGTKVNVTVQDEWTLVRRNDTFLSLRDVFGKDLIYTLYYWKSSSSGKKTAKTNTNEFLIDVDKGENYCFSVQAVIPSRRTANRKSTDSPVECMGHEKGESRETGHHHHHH
Put plainly: SPR (Biacore), antibody on chip, TF-His titrated.

Assay [7] deals with T10, mouse TF ECD-His6 (mouse, UniProt P20352 29-251).
T10 construct: made in Expi293 cells; also called TF-His; mTF
The experiment in a line: SPR (Biacore), antibody on chip, TF-His titrated.

For assay [8], the target named is T11, hTF_N171H_T197K (human, UniProt P13726 33-251).
T11 construct: the entry already holds N171H and T197K; on transfected HEK293 cells
T11 chain: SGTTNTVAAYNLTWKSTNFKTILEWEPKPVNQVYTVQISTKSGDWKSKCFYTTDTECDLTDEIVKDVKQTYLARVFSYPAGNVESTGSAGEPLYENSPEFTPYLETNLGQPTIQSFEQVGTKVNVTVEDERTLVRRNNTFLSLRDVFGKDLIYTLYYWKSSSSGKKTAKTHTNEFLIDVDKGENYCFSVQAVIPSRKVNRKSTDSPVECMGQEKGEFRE
Put plainly: live cell staining of transfected HEK293, flow cytometry.

The next assay has as its target T12, hTF_K149N (human, UniProt P13726 33-251).
T12 construct: the entry already holds K149N; on transfected HEK293 cells; not shown: transmembrane and cytoplasmic part of the construct expressed on HEK293 cells
T12 chain: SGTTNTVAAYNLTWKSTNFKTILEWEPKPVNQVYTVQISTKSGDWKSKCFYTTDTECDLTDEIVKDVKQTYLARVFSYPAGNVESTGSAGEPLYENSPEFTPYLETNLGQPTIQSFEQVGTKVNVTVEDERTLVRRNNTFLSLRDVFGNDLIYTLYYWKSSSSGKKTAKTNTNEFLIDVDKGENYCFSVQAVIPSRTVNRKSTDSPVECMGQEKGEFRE
Described as above.

Assay [9] deals with rTF (rat TF) on HEK293 cells (rat, UniProt P42533 29-252). Described as above.
Assay [10] has as its target T13, human TF ECD-His6 (human, UniProt P13726 33-251).
T13 construct: made in Expi293 cells; the entry holds the ECD with the C-terminal TG-His6; also called TF-His; hTF
The experiment in a line: BLI (ForteBio Octet). For orientation: BLI is a label-free optical method that tracks binding on a fibre tip over time.

Assay [11] addresses T9, cynomolgus TF ECD-His6. Put plainly: BLI (ForteBio Octet).
The target of assay [12] is T10, mouse TF ECD-His6. Put plainly: BLI (ForteBio Octet).
Assay [13] has as its target T13, human TF ECD-His6. The experiment in a line: SPR (Biacore), antibody on chip, TF-His titrated.

Like-named read-outs stand apart in the source and are kept apart here.

B1: anti-TF antibody 43D8 (antibody, human IgG1, kappa, V domains shown)
VH: QVQLQQWGAGLLKPSETLSLTCAVYGGSLSGYYWSWIRQPPGKGLEWIGEIGASGSTRYNPSLKSRVTISVDTSKNQFSLKLSSVTAADTAVYYCARDTPYYYEGGYYYYMDVWGKGTTVTVSS
VL: EIVLTQSPGTLSLSPGERATLSCRASQSVSSSFLAWYQQKPGQAPRLLIYGAYSRATGIPDRFSGSGSGTDFTLTISRLEPEDFAVYYCQQAGVVPYTFGGGTKVEIKR
notes: Human IgG1
For orientation: Kd means the constant that tells how readily two partners part at equilibrium. Consider B1, for which, in assay [1], the “% GM-CSF, 2.56 nM antibody, MDA-MB-231 cells + FVIIa” value turned out to be 57%; the “% GM-CSF, 6.4 nM antibody, MDA-MB-231 cells + FVIIa” value worked out at 24%; the “% GM-CSF, 16 nM antibody, MDA-MB-231 cells + FVIIa” value amounted to 11%; the “% GM-CSF, 40 nM antibody, MDA-MB-231 cells + FVIIa” value was 11%. The “% GM-CSF, 100 nM antibody, MDA-MB-231 cells + FVIIa” value in assay [1] is 12%. In [2], this molecule gave a Kd of 12.9 nM.

B2: 29E (antibody, human IgG1, V domains shown)
VH: QVQLVESGGGVVQPGRSLRLSCAASGFTFRSYGMHWVRQAPGKGLEWVAVITYDGINKYYADSVEGRFTISRDNSKNTLYLQMNSLRAEDTAVYYCARDGVYYGVYDYWGQGTLVTVSS
VL: not shown
notes: Human IgG1
For B2, the “Percent antibody binding to TF construct relative to hTF” value with rTF (rat TF) [3] amounted to 0%; in the assay with hTF, 100%; in the assay with hTF_N171H_T197K [4] it was 98%; with r141-194_h, 0%; with rTF (rat TF) [5], 0%; with h1-77_r, 0%. For the same molecule, the “Percent antibody binding to TF construct relative to hTF” value with h78-107_r.v2 and with h1-107_r was 0% in each case.

B3: 1F (antibody, human IgG1, V domains shown)
VH: EVQLLESGGGLVQPGGSLRLSCAASGFTFSDYAMGWVRQAPGKGLEWVSTISGSGGLTYYADSVKGRFTISRDNSKNTLYLQMNSLRAEDTAVYYCAKAPYGYYMDVWGKGTTVTVSS
VL: not shown
notes: Human IgG1
On to B3, for which the “Percent antibody binding to TF construct relative to hTF” value in the assay with rTF (rat TF) [3] was determined as 0%; in the assay with hTF it was 100%; with hTF_N171H_T197K [4], 83%; with r141-194_h, 0%; in the assay with rTF (rat TF) [5], 0%; with h1-77_r, 0%. Further, the “Percent antibody binding to TF construct relative to hTF” value with h78-107_r.v2 and with h1-107_r was 0% in each case.

B4: anti-TF antibody 25G9 (antibody, human IgG1, kappa, V domains shown)
VH: QVQLVQSGAEVKKPGASVKVSCKASGYTFRSYGISWVRQAPGQGLEWMGWVAPYSGNTNYAQKLQGRVTMTTDTSTSTAYMELRSLRSDDTAVYYCARDAGTYSPYGYGMDVWGQGTTVTVSS
VL: DIQMTQSPSTLSASVGDRVTITCQASQSIDSWLAWYQQKPGKAPKLLIYSASYLESGVPSRFSGSGSGTEFTLTISSLQPDDFATYYCQRFQSLPPFTFGGGTKVEIKR
notes: Human IgG1
Take B4: in assay [1], the “% GM-CSF, 2.56 nM antibody, MDA-MB-231 cells + FVIIa” value was 60%; the “% GM-CSF, 6.4 nM antibody, MDA-MB-231 cells + FVIIa” value was 34%; the “% GM-CSF, 16 nM antibody, MDA-MB-231 cells + FVIIa” value amounted to 26%; the “% GM-CSF, 40 nM antibody, MDA-MB-231 cells + FVIIa” value turned out to be 26%. Further, the “% GM-CSF, 100 nM antibody, MDA-MB-231 cells + FVIIa” value in assay [1] is 25%. The same molecule displayed a Kd in assay [2] of 3.31 nM.

B5: 25G1 (antibody, human IgG1, kappa, V domains shown)
VH: QVQLVQSGAEVKKPGASVKVSCKASGYTFRSYGISWVRQAPGQGLEWMGWVAPYSGNTNYAQKLQGRVTMTTDTSTSTAYMELRSLRSDDTAVYYCARDAGTYSPYGYGMDVWGQGTTVTVSS
VL: DIQMTQSPSTLSASVGDRVTITCRASHSIDSWLAWYQQKPGKAPKLLIYKASYLESGVPSRFSGSGSGTEFTLTISSLQPDDFATYYCQLFQSLPPFTFGGGTKVEIKR
notes: human IgG1
For B5, the Kd came out at 0.78 nM with cynomolgus TF ECD-His6 [6]; 5.4 nM with mouse TF ECD-His6 [7]; 3.97 nM with human TF ECD-His6 [10]; 4.99 nM with cynomolgus TF ECD-His6 [11]; 34.2 nM with mouse TF ECD-His6 [12]. The results for the binding result (with hTF_N171H_T197K [8]; with hTF_K149N; in assay [9]) were “no binding”, “no binding” and “no binding (tested: 15 µg/ml (100 nM))”, respectively.

B6: 25A (antibody, human IgG1, V domains shown)
VH: QVQLVQSGAEVKKPGASVKVSCKASGYTFDVYGISWVRQAPGQGLEWMGWIAPYNGNTNYAQKLQGRVTMTTDTSTSTAYMELRSLRSDDTAVYYCARDAGTYSPFGYGMDVWGQGTTVTVSS
VL: DIQMTQSPSTLSASVGDRVTITCRASQSISSWLAWYQQKPGKAPKLLIYKASSLESGVPSRFSGSGSGTEFTLTISSLQPDDFATYYCQQFQSLPPFTFGGGTKVEIK
notes: human IgG1
As for B6, the Kd with human TF ECD-His6 [13] was 6.2 nM; in the assay with cynomolgus TF ECD-His6 [6], 5.42 nM; with human TF ECD-His6 [10], 8.45 nM; in the assay with cynomolgus TF ECD-His6 [11], 7.65 nM; with mouse TF ECD-His6 [12], 263 nM. Moreover, the values for the binding result (in the assay with hTF_N171H_T197K [8]; in the assay with hTF_K149N; in assay [9]) were “no binding”, “no binding” and “no binding (tested: 15 µg/ml (100 nM))”, respectively.

B7: 25G9 (antibody, human IgG1, kappa, V domains shown)
VH: QVQLVQSGAEVKKPGASVKVSCKASGYTFRSYGISWVRQAPGQGLEWMGWVAPYSGNTNYAQKLQGRVTMTTDTSTSTAYMELRSLRSDDTAVYYCARDAGTYSPYGYGMDVWGQGTTVTVSS
VL: DIQMTQSPSTLSASVGDRVTITCQASQSIDSWLAWYQQKPGKAPKLLIYSASYLESGVPSRFSGSGSGTEFTLTISSLQPDDFATYYCQRFQSLPPFTFGGGTKVEIKR
notes: human IgG1
With B7, the Kd with human TF ECD-His6 [13] stood at 13.3 nM; with cynomolgus TF ECD-His6 [6], 16.4 nM; with mouse TF ECD-His6 [7] it was 2.9 nM; with human TF ECD-His6 [10] it was 35.8 nM; with cynomolgus TF ECD-His6 [11], 42.9 nM; with mouse TF ECD-His6 [12], 9.16 nM. Further, the binding result in the assay with hTF_N171H_T197K [8] was “no binding”; with hTF_K149N, “no binding”; in assay [9], “no binding (tested: 15 µg/ml (100 nM))”.

Source of the values: patent publication US20240166765A1 (ICONIC THERAPEUTICS, published 2024).
